Test results reported in the supplement of paper PMC9112550, “Optimization of the antimicrobial peptide Bac7 by deep mutational scanning” (BMC Biology, 2022).

Tested on: Escherichia coli TOP10
Experiment: shrunken log2 fold change of peptide-encoding DNA abundance (4.5 h post-induction vs induction); higher = less antimicrobial activity (less host growth inhibition)
Details: time post-induction: 4.5 h; library: site-saturation at positions 5, 18, 19, 20
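Further: peptides expressed intracellularly from a pBAD plasmid library in pooled LB shake-flask culture, induced with 0.3% L-arabinose, DNA abundance read by NGS, three biological replicates, DESeq2 with apeglm shrinkage.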

RRIRWRPPRLPRPRPRPIDSPRP
shrunken log2 fold change: -0.0713

RRIRLRPPRLPRPRPRPIAVPRP
shrunken log2 fold change: -0.16

RRIRARPPRLPRPRPRPTRTPRP
shrunken log2 fold change: 0.653

RRIRSRPPRLPRPRPRPFEGPRP
shrunken log2 fold change: 0.123

RRIRPRPPRLPRPRPRPLSYPRP
shrunken log2 fold change: 0.0626

RRIRCRPPRLPRPRPRPRVFPRP
shrunken log2 fold change: 0.0449

RRIRARPPRLPRPRPRPNLMPRP
shrunken log2 fold change: -0.0139

RRIRERPPRLPRPRPRPSFWPRP
shrunken log2 fold change: 0.132

RRIRPRPPRLPRPRPRPFPPPRP
shrunken log2 fold change: -0.0227

RRIRFRPPRLPRPRPRPEQYPRP
shrunken log2 fold change: -0.234

RRIRNRPPRLPRPRPRPPCWPRP
shrunken log2 fold change: 0.231

RRIRSRPPRLPRPRPRPRGAPRP
shrunken log2 fold change: 0.737

RRIRRRPPRLPRPRPRPPAFPRP
shrunken log2 fold change: 1.08

RRIRRRPPRLPRPRPRPMRYPRP
shrunken log2 fold change: 0.236

RRIRQRPPRLPRPRPRPYMGPRP
shrunken log2 fold change: -0.00992

RRIRIRPPRLPRPRPRPPVFPRP
shrunken log2 fold change: 0.0815

RRIRVRPPRLPRPRPRPVRHPRP
shrunken log2 fold change: 0.0933

RRIRSRPPRLPRPRPRPGVYPRP
shrunken log2 fold change: -0.0749

RRIRVRPPRLPRPRPRPVMIPRP
shrunken log2 fold change: -0.183

RRIRPRPPRLPRPRPRPQIKPRP
shrunken log2 fold change: -0.282

RRIRMRPPRLPRPRPRPMCMPRP
shrunken log2 fold change: -0.179

RRIRGRPPRLPRPRPRPSYKPRP
shrunken log2 fold change: -0.197

RRIRMRPPRLPRPRPRPHFCPRP
shrunken log2 fold change: -0.0487

RRIRWRPPRLPRPRPRPNHVPRP
shrunken log2 fold change: -0.651

RRIRKRPPRLPRPRPRPHHLPRP
shrunken log2 fold change: -0.232

RRIRYRPPRLPRPRPRPIVTPRP
shrunken log2 fold change: -0.015

RRIRIRPPRLPRPRPRPEAFPRP
shrunken log2 fold change: 0.0813

RRIRCRPPRLPRPRPRPEDCPRP
shrunken log2 fold change: 0.173

RRIRARPPRLPRPRPRPERGPRP
shrunken log2 fold change: 0.305

RRIRARPPRLPRPRPRPQKWPRP
shrunken log2 fold change: 0.301

RRIRARPPRLPRPRPRPPATPRP
shrunken log2 fold change: 1.63

RRIRTRPPRLPRPRPRPNKYPRP
shrunken log2 fold change: -0.76

RRIRGRPPRLPRPRPRPPCCPRP
shrunken log2 fold change: 0.478

RRIRCRPPRLPRPRPRPEKPPRP
shrunken log2 fold change: 0.118

RRIRSRPPRLPRPRPRPRKEPRP
shrunken log2 fold change: 0.131

RRIRYRPPRLPRPRPRPMIEPRP
shrunken log2 fold change: 0.00164

RRIRMRPPRLPRPRPRPHIIPRP
shrunken log2 fold change: -0.991

RRIRERPPRLPRPRPRPGVEPRP
shrunken log2 fold change: -0.194

RRIRQRPPRLPRPRPRPTKSPRP
shrunken log2 fold change: 0.00581

RRIRYRPPRLPRPRPRPHPKPRP
shrunken log2 fold change: -0.0588

RRIRQRPPRLPRPRPRPSEDPRP
shrunken log2 fold change: -0.0593

RRIRKRPPRLPRPRPRPHVWPRP
shrunken log2 fold change: 0.82

RRIRSRPPRLPRPRPRPIVFPRP
shrunken log2 fold change: -0.0485

RRIRYRPPRLPRPRPRPAYRPRP
shrunken log2 fold change: -0.0312

RRIRARPPRLPRPRPRPISQPRP
shrunken log2 fold change: 0.177

RRIRVRPPRLPRPRPRPDTTPRP
shrunken log2 fold change: -1.05

RRIRRRPPRLPRPRPRPHEVPRP
shrunken log2 fold change: 0.0299

RRIRDRPPRLPRPRPRPDCSPRP
shrunken log2 fold change: 0.573

RRIRWRPPRLPRPRPRPNRKPRP
shrunken log2 fold change: -0.239

RRIRIRPPRLPRPRPRPEKNPRP
shrunken log2 fold change: -0.232

RRIRQRPPRLPRPRPRPWTAPRP
shrunken log2 fold change: -0.264

RRIRWRPPRLPRPRPRPSYNPRP
shrunken log2 fold change: -0.343

RRIRKRPPRLPRPRPRPYADPRP
shrunken log2 fold change: -0.0355

RRIRFRPPRLPRPRPRPELAPRP
shrunken log2 fold change: 0.0952

RRIRDRPPRLPRPRPRPEAHPRP
shrunken log2 fold change: -0.00146

RRIRLRPPRLPRPRPRPESMPRP
shrunken log2 fold change: 0.191

RRIRGRPPRLPRPRPRPYPAPRP
shrunken log2 fold change: 0.497

RRIRLRPPRLPRPRPRPLIPPRP
shrunken log2 fold change: -0.41

RRIRERPPRLPRPRPRPCMHPRP
shrunken log2 fold change: -0.0148

RRIRNRPPRLPRPRPRPEVSPRP
shrunken log2 fold change: -0.0183

RRIRERPPRLPRPRPRPAEDPRP
shrunken log2 fold change: 0.0107

RRIRDRPPRLPRPRPRPLSRPRP
shrunken log2 fold change: -0.113

RRIRVRPPRLPRPRPRPELMPRP
shrunken log2 fold change: -0.0669

RRIRMRPPRLPRPRPRPKYRPRP
shrunken log2 fold change: 0.0666

RRIRLRPPRLPRPRPRPKVAPRP
shrunken log2 fold change: -0.0483

RRIRQRPPRLPRPRPRPDVNPRP
shrunken log2 fold change: -0.142

RRIRIRPPRLPRPRPRPHEAPRP
shrunken log2 fold change: -0.396

RRIRARPPRLPRPRPRPPHFPRP
shrunken log2 fold change: 1.41

RRIRMRPPRLPRPRPRPYVMPRP
shrunken log2 fold change: -0.0161

RRIRDRPPRLPRPRPRPTWSPRP
shrunken log2 fold change: 0.235

RRIRRRPPRLPRPRPRPLDPPRP
shrunken log2 fold change: 0.5

RRIRIRPPRLPRPRPRPEFPPRP
shrunken log2 fold change: -0.0115

RRIRGRPPRLPRPRPRPSFEPRP
shrunken log2 fold change: 0.647

RRIRCRPPRLPRPRPRPWRTPRP
shrunken log2 fold change: -0.166

RRIRLRPPRLPRPRPRPECRPRP
shrunken log2 fold change: 2.41

RRIRYRPPRLPRPRPRPGYDPRP
shrunken log2 fold change: -0.205

RRIRFRPPRLPRPRPRPRGIPRP
shrunken log2 fold change: -0.123

RRIRARPPRLPRPRPRPSMSPRP
shrunken log2 fold change: -0.105

RRIRHRPPRLPRPRPRPQIGPRP
shrunken log2 fold change: -0.0135

RRIRNRPPRLPRPRPRPNNTPRP
shrunken log2 fold change: -0.798

RRIRQRPPRLPRPRPRPPPWPRP
shrunken log2 fold change: 0.981

RRIRQRPPRLPRPRPRPKDPPRP
shrunken log2 fold change: -0.000135

RRIRKRPPRLPRPRPRPNQLPRP
shrunken log2 fold change: -0.33

RRIRKRPPRLPRPRPRPHQWPRP
shrunken log2 fold change: 0.264

RRIRVRPPRLPRPRPRPIITPRP
shrunken log2 fold change: -0.844

RRIRMRPPRLPRPRPRPLGYPRP
shrunken log2 fold change: -0.264

RRIRMRPPRLPRPRPRPCPIPRP
shrunken log2 fold change: -0.404

RRIRHRPPRLPRPRPRPAVNPRP
shrunken log2 fold change: -0.0508

RRIRKRPPRLPRPRPRPYDYPRP
shrunken log2 fold change: -0.0386

RRIRNRPPRLPRPRPRPMNTPRP
shrunken log2 fold change: -0.421

RRIRTRPPRLPRPRPRPKLTPRP
shrunken log2 fold change: 0.0272

RRIRFRPPRLPRPRPRPRRDPRP
shrunken log2 fold change: 0.798

RRIRPRPPRLPRPRPRPTVIPRP
shrunken log2 fold change: -0.28

RRIRSRPPRLPRPRPRPMPWPRP
shrunken log2 fold change: -0.039

RRIRHRPPRLPRPRPRPACNPRP
shrunken log2 fold change: -0.155

RRIRYRPPRLPRPRPRPDSWPRP
shrunken log2 fold change: -0.602

RRIRHRPPRLPRPRPRPGCKPRP
shrunken log2 fold change: 0.229

RRIRHRPPRLPRPRPRPVCEPRP
shrunken log2 fold change: 0.0977

RRIRRRPPRLPRPRPRPFQKPRP
shrunken log2 fold change: -0.0282

RRIRKRPPRLPRPRPRPGMCPRP
shrunken log2 fold change: 0.863

RRIRDRPPRLPRPRPRPTYPPRP
shrunken log2 fold change: -0.106

RRIRWRPPRLPRPRPRPYYYPRP
shrunken log2 fold change: -0.473

RRIRFRPPRLPRPRPRPCTPPRP
shrunken log2 fold change: -0.158

RRIRNRPPRLPRPRPRPWLFPRP
shrunken log2 fold change: 0.0966

RRIRNRPPRLPRPRPRPFWQPRP
shrunken log2 fold change: 0.201

RRIRTRPPRLPRPRPRPEIIPRP
shrunken log2 fold change: 0.095

RRIRSRPPRLPRPRPRPVQTPRP
shrunken log2 fold change: 0.826

RRIRSRPPRLPRPRPRPGIDPRP
shrunken log2 fold change: -0.0173

RRIRERPPRLPRPRPRPSMEPRP
shrunken log2 fold change: -0.14

RRIRYRPPRLPRPRPRPWSSPRP
shrunken log2 fold change: 0.0132

RRIRRRPPRLPRPRPRPQEIPRP
shrunken log2 fold change: -0.149

RRIRKRPPRLPRPRPRPQRPPRP
shrunken log2 fold change: 0.518

RRIRKRPPRLPRPRPRPPDCPRP
shrunken log2 fold change: 1.03

RRIRQRPPRLPRPRPRPLSTPRP
shrunken log2 fold change: 0.175

RRIRIRPPRLPRPRPRPAFAPRP
shrunken log2 fold change: 0.207

RRIRKRPPRLPRPRPRPYYGPRP
shrunken log2 fold change: -0.101

RRIRIRPPRLPRPRPRPVTEPRP
shrunken log2 fold change: -0.109

RRIRWRPPRLPRPRPRPPWCPRP
shrunken log2 fold change: 0.183

RRIRRRPPRLPRPRPRPLYCPRP
shrunken log2 fold change: -0.115

RRIRLRPPRLPRPRPRPLVFPRP
shrunken log2 fold change: -0.186

RRIRCRPPRLPRPRPRPMCHPRP
shrunken log2 fold change: -0.662

RRIRFRPPRLPRPRPRPPIWPRP
shrunken log2 fold change: 0.317

RRIRNRPPRLPRPRPRPDSNPRP
shrunken log2 fold change: -0.0886

RRIRCRPPRLPRPRPRPKANPRP
shrunken log2 fold change: 1.15

RRIRGRPPRLPRPRPRPECCPRP
shrunken log2 fold change: 1.52
